Results on 30 molecules are retold here after patent publication US20240002497A1 (Merck Sharp & Dohme, published 2024).

Substitutions are numbered along the chain they refer to. Names may count otherwise.

Broadly, the EC50 is the concentration needed to bring the measured effect to its halfway point.

To fix the notation:
B1: F010301868 (VHH)
VHH: EVQLVESGGGVVQPGGSLRLSCATTSRAFIRDVFTGWYRRVPGKERELVARIYNGGNTNYADFAKGRFTISRDNAKKMVYLQMNSLRPEDTALYYCLFSGTINTGREYRSGDYWGQGTLVTVSS
notes: also called F0103464B09(L11V, S68T, T79Y, R81Q, S82aN, N82bS, K83R, G88A, V89L)
B2: F010301869 (VHH)
VHH: B1 VHH with M78T
notes: also called F0103464B09(L11V, S68T, M77T, T79Y, R81Q, S82aN, N82bS, K83R, G88A, V89L)
B3: F010301873 (VHH)
VHH: B1 VHH with R40Q
notes: also called F0103464B09(L11V, R39Q, S68T, T79Y, R81Q, S82aN, N82bS, K83R, G88A, V89L)
B4: F010301933 (VHH)
VHH: B1 VHH with Y80T, Q82R, N84S, S85N, A92G
notes: also called F0103464B09(L11V, S68T, K83R, V89L)
B5: F010301893 (VHH)
VHH: B1 VHH with E45Q
notes: also called F0103464B09(L11V, E44Q, S68T, T79Y, R81Q, S82aN, N82bS, K83R, G88A, V89L)
B6: F010301938 (VHH)
VHH: B1 VHH with T69S, Y80T, Q82R, N84S, A92G
notes: also called F0103464B09(L11V, N82bS, K83R, V89L)
B7: F010301874 (VHH)
VHH: B1 VHH with V41A
notes: also called F0103464B09(L11V, V40A, S68T, T79Y, R81Q, S82aN, N82bS, K83R, G88A, V89L)
B8: F010301877 (VHH)
VHH: B1 VHH with K77N
notes: also called F0103464B09(L11V, S68T, K76N, T79Y, R81Q, S82aN, N82bS, K83R, G88A, V89L)
B9: F010301872 (VHH)
VHH: B1 VHH with T25S
notes: also called F0103464B09(L11V, T25S, S68T, T79Y, R81Q, S82aN, N82bS, K83R, G88A, V89L)
B10: F010301871 (VHH)
VHH: B1 VHH with T24A
notes: also called F0103464B09(L11V, T24A, S68T, T79Y, R81Q, S82aN, N82bS, K83R, AG88, V89L)
B11: F010301934 (VHH)
VHH: B1 VHH with T69S, M78T, Y80T, Q82R, N84S, S85N, A92G
notes: also called F0103464B09(L11V, M77T, K83R, V89L)
B12: F010301876 (VHH)
VHH: B1 VHH with A64V
notes: also called F0103464B09(L11V, A63V, S68T, T79Y, R81Q, S82aN, N82bS, K83R, G88A, V89L)
B13: F010301937 (VHH)
VHH: B1 VHH with T69S, Y80T, Q82R, S85N, A92G
notes: also called F0103464B09(L11V, S82aN, K83R, V89L)
B14: F010301875 (VHH)
VHH: B1 VHH with F63S
notes: also called F0103464B09(L11V, F62S, S68T, T79Y, R81Q, S82aN, N82bS, K83R, G88A, V89L)
B15: F010301932 (VHH)
VHH: B1 VHH with T69S, Y80T, Q82R, N84S, S85N, A92G
notes: also called F0103464B09(L11V, K83R, V89L)
B16: F010301936 (VHH)
VHH: B1 VHH with T69S, Y80T, N84S, S85N, A92G
notes: also called F0103464B09(L11V, R81Q, K83R, V89L)
B17: F010301935 (VHH)
VHH: B1 VHH with T69S, Q82R, N84S, S85N, A92G
notes: also called F0103464B09(L11V, T79Y, K83R, V89L)
B18: F010301301 (VHH)
VHH: EVQLVESGGGLVQAGGSLRLSCDASGRILRTGYMRWHRQGAGKQREFVARITDDSATDYADSVKGRFTISRDNAKNTVYLQMNNLNPEDTAVYYCEALVTASVRGGSIHSGTYWGRGTLVTVSS
notes: vs 387G05: I31T
B19: F010301418 (VHH)
VHH: B18 VHH with T31I, Y113W
notes: vs 387G05: Y102W
B20: F010301416 (VHH)
VHH: B18 VHH with T31I, T112Q
notes: vs 387G05: T101Q
B21: F010301440 (VHH)
VHH: B18 VHH with T31I, G111T
notes: vs 387G05: G100hT
B22: F010301313 (VHH)
VHH: B18 VHH with T31I, R35K
notes: vs 387G05: R35K
B23: F010301409 (VHH)
VHH: B18 VHH with T31I, H109V
notes: vs 387G05: H100fV
B24: F010301387 (VHH)
VHH: B18 VHH with T31I, V103A
notes: vs 387G05: V100A
B25: F010301360 (VHH)
VHH: B18 VHH with T31I, A56T
notes: vs 387G05: A56T
B26: F010301304 (VHH)
VHH: B18 VHH with T31W
notes: vs 387G05: I31W
B27: F010301335 (VHH)
VHH: B18 VHH with T31I, R50V
notes: vs 387G05: R50V
B28: F010301425 (VHH)
VHH: B18 VHH with T31I, G105V
notes: vs 387G05: G100bV
B29: F010301309 (VHH)
VHH: B18 VHH with L29V, T31I
notes: vs 387G05: L29V
B30: F010301328 (VHH)
VHH: B18 VHH with T31I, T57V
notes: vs 387G05: T57V

The target of the first assay is T1, muNav1.7α (murine, UniProt Q62205 1-1984).
T1 construct: HEK JmpIn cells; also called murine Nav1.7α
The assay can be described thus: binding FACS, HEK JmpIn. How it is done: Binding of the ISVDs to cell-expressed Nav1.7α was detected via murine anti-Flag (Sigma, catalog #F1804). Briefly, cells were resuspended in FACS buffer (PBS, 10% FBS, NaN₃) and transferred to a 96-well V-bottom plate at 1×10^5 cells/well. Purified FLAG3-tagged ISVD was diluted in FACS buffer and added to the cells for 30 minutes at 4° C. […] Prior to the read-out, the samples were resuspended in 1 μg/mL propidium iodide (Sigma, catalog #P4170) to exclude dead cells. Between each step, the cells were centrifuged for 5 minutes at 200 grams and washed with 100 μL/well FACS buffer.
B1: the response was half-maximal at 11 nM (EC50).
On the same count and under the same terms, in the case of B2 it was 17 nM; in that of B3, 42 nM; in that of B4, 5.3 nM.
As for B5, the EC50 was found to be 3.6 nM.
B6: the response was half-maximal at 4.7 nM (EC50).
Same read-out and setting: in the case of B7 it was 18 nM; in that of B8, 39 nM.
On the same count and under the same terms, in the case of B9 it was 21 nM.
Molecule B10 had a half-maximal effective concentration (EC50) of 24 nM.
Same read-out and setting: in the case of B11 it was 4.5 nM; in that of B12, 23 nM.
For the molecule B13, the half-maximal effective concentration (EC50) amounted to 4.8 nM.
Take B14: a half-maximal response (EC50) required 14 nM.
The molecule B15 yielded a 50% effective concentration (EC50) of 4.8 nM.
In turn, B16 displayed a 50% effective concentration (EC50) of 4.8 nM.
The molecule B17 returned an EC50 of 5.5 nM.

A further assay deals with T2, rhNav1.7α + β1-β2-β3 (rhesus monkey).
T2 construct: also called rhNav1.7-beta1-beta2-beta3; rhNav1.7-β1-β2-β3
The assay can be described thus: binding FACS, CHO FlpIn. A digest of the protocol: (§1)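 Flow cytometry read-out of anti-Flag signal on propidium iodide-negative cells measured ISVD binding. Purified FLAG3-tagged ISVD, diluted in PBS with 10% FBS and NaN₃, was applied to the cells for 30 minutes at 4° C.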
With B1, the EC50 was found to be 62 nM.
Same read-out and setting: in the case of B2 it was 96 nM.
The same measure, in the same setting: in the case of B3 it was 110 nM; in that of B4, 21 nM; in that of B5, 21 nM.
For the molecule B6, the EC50 stood at 20 nM.
On the same count and under the same terms, in the case of B7 it was 55 nM.
The same measure, in the same setting: the result for B8 reads 96 nM; that for B9, 57 nM; that for B10, 37 nM.
Same read-out and setting: the result for B11 reads 21 nM; that for B12, 110 nM.
On to B13, for which the half-maximal effective concentration (EC50) was determined as 20 nM.
Still for that read-out and setting: the result for B14 reads 52 nM; that for B15, 17 nM.
The same measure, in the same setting: in the case of B16 it was 26 nM; in that of B17, 27 nM.

In a further assay the target is T3, huNav1.7α + β1-β2-β3 (human, UniProt Q15858 1-1988; A5A6L6 19-218; O60939 30-215; Q2KI11 23-215).
T3 construct: also called huNav1.7-beta1-beta2-beta3; huNav1.7-β1-β2-β3
The assay is described as follows: binding FACS, CHO FlpIn. In short, it runs like this:
as §1
B1: the Bmax came to 98% and the EC50 amounted to 6.3 nM.
For B2, in that order: 100% and 7.6 nM.
In the same order, the values of B3 are 100% and 9 nM.
In the same order, the values of B4 are 94% and 4.4 nM.
Regarding B5, the Bmax was 100% and the concentration giving a half-maximal response (EC50) is 5.8 nM.
As for B6, the Bmax turned out to be 97% and the concentration for a half-maximal effect (EC50) worked out at 4.8 nM.
Take B7: the Bmax is 100% and the concentration giving a half-maximal response (EC50) stood at 6.5 nM.
In the same order, the values of B8 are 100% and 13 nM.
For the molecule B9, the Bmax stood at 100% and the EC50 is 6.8 nM.
As to B10, the Bmax came out at 100% and the EC50 worked out at 5.8 nM.
In the same order, the values of B11 are 96% and 4.3 nM.
Regarding B12, the Bmax was found to be 100% and the EC50 came to 6.3 nM.
Consider B13, for which the Bmax was 95% and the EC50 was determined as 4.3 nM.
In the same order, the values of B14 are 100% and 6.4 nM.
On to B15, for which the Bmax came out at 94% and the EC50 was determined as 4.3 nM.
Consider B16, for which the Bmax was found to be 95% and the concentration giving a half-maximal response (EC50) came out at 4.4 nM.
As to B17, the Bmax was 94% and the EC50 stood at 3.8 nM.

Another assay concerns the target T4, huNav1.7α+β1-β2-β3 (human, UniProt Q15858 1-1988; Q07699 19-218; O60939 30-215; Q9NY72 23-215).
T4 construct: 5N11S variant; also called huNav1.7-beta1-beta2-beta3; huNav1.7α+Navβ1-Navβ2-Navβ3
The assay is described as follows: binding FACS, CHO FlpIn cells. A digest of the protocol:
as §1
B18 showed an EC50 of 7.3 nM.
In the case of B19, the response was half-maximal at 4.9 nM (EC50).
For the molecule B20, the binding result is given as “no binding”.
B21 had an EC50 of 5.7 nM.
Same read-out and setting: the result for B22 reads 5.5 nM; that for B23, 5.1 nM; that for B24, 5.2 nM.
The same measure, in the same setting: the result for B25 reads 5.2 nM.
Still for that read-out and setting: in the case of B26 it was 5.7 nM; in that of B27, 7.9 nM; in that of B28, 15 nM.
Molecule B29 returned a concentration giving a half-maximal response (EC50) of 5.4 nM.
Same read-out and setting: in the case of B30 it was 5 nM.
